The test system of data set [1] is SB100X Q124C transposase Q124C (synthetic construct). The data set is described as follows: cell_activity. The settings on record: HepG2 colony-forming transposition; hyperactive at 500 and 2500 ng plasmid.
Data set [2] has as its system SB100X Sleeping Beauty transposase (synthetic construct). The data set is described as follows: cell_activity. The note with it: HepG2 colony-forming transposition; integrates at TA.

Consider 1 substance from patent publication US20260103689.

“SB transposon pT2/Puro (puro-tagged, terminal inverted repeats)” displayed a transposition activity (colony formation, fold vs SB100X) (fold vs SB100X) in data set [1] of 2. Also, in data set [2], the transposition activity (colony formation, fold vs SB100X) (fold (reference)) was 1.
